Biological target: T1, BACE2 (Homo sapiens, UniProt Q9Y5Z0)
T1 construct: purchased R&D Systems
T1 sequence (Q9Y5Z0 63-518): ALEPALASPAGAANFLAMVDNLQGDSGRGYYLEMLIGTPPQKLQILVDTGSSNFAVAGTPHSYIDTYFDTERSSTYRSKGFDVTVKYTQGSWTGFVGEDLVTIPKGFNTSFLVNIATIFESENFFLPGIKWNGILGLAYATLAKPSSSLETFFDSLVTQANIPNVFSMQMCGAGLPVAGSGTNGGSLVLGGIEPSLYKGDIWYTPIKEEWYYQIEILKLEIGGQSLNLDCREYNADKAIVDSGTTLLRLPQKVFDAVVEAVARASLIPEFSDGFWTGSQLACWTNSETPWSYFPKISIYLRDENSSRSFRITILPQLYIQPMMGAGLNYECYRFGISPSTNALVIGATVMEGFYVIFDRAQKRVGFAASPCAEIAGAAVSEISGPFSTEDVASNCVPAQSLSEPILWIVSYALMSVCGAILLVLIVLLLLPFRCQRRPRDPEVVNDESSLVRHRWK
Experiment: Cleavage of biotinylated Aβ by BACE2, immunoprecipitation/mass spectrometry (IP/MS)
Format: biochemical
Conditions: peptide 300 nM, BACE2 5 nM, within 1 h; 25 mM acetate buffer pH 4.0, 0.1% BSA; product Aβ34; SELDI-TOF MS
Procedure: We next investigated which peptide bond(s) within Aβ are hydrolyzed by BACE2 and BACE1. To that end, we co-incubated N-terminally biotinylated Aβ40 or Aβ42 (300nM) with BACE2 (5 nM) and analyzed the products by immunoprecipitation/mass spectrometry (IP/MS) (see Methods). […] To test whether any additional cleavages can occur, we incubated N-terminally biotinylated Aβ40 (300 nM) with a larger amount of BACE2 (25 nM) for 1 and 24 h. At these higher concentrations and longer incubation times, Aβ19 and Aβ20 were the principal N-terminal fragments remaining at the end of the reaction (Figure 3E-F).
The cleavage sites within Aβ40 and Aβ42 hydrolyzed by BACE2 and BACE1 were determined essentially as described with minor modifications. Briefly, Aβ peptides or biotinylated Aβ peptides were incubated for various lengths of time with recombinant BACE2 enzyme in Assay Buffer (25 mM acetate buffer, pH 4.0, supplemented with 0.1% BSA). The reaction was stopped by addition of protease inhibitor cocktail and pH adjustment. Aβ fragments were immediately precipitated by magnetic beads coated with streptavidin (for biotinylated Aβ) or magnetic beads coated with Ab9 antibody (for unmodified Aβ). […] Digested products were spotted onto a gold chip, dried, and analyzed using a Ciphergen ProteinChip SELDI time-of-flight system (Bio-Rad). […]

| extent of hydrolysis by BACE2 | Substance |
| --- | --- |
| almost completely hydrolyzed | N-terminally biotinylated Aβ40: Aβ40 biotinylated at the N-terminus, substrate for IP/MS |
| almost completely hydrolyzed | N-terminally biotinylated Aβ42: Aβ42 biotinylated at the N-terminus, substrate for IP/MS |
